According to patent publication US20160176953A1 (Regeneron, published 2016):

B1: H1H11729P (antibody, V domains shown)
VH: QVQLVQSGAEVKKSGSSVKVSCKASGGTFSSYAISWVRQAPGQGLEWMGGIIPIFGTPSYAQKFQDRVTITTDESTSTVYMELSSLRSEDTAVYYCARQQPVYQYNMDVWGQGTTVTVSS
VL: DIQMTQSPSSLSASVGDRVTITCRASQGIRNNLGWYQQKPLKAPKRLIYAASSLQSGVPSRFSGSGSGTEFTLTISSLQPEDFATYYCLQYNNYPWTFGQGTKVEIK
B2: H2aM11829N (antibody, V domains shown)
VH: QVHLVQSGPEVKKPGSSVKVSCKASGVTFISHAISWVRQAPGQGLEWVGGIIAIFGTTNYAQKFQGRVTVTTDKSTNTVYMELSRLRSEDTAIYYCARGETYYEGNFDFWGQGTLVTVSS
VL: VIQMTQSPSSLSASVGDRVTITCRASQSVRSNLNWYQQTPGKAPRLLIYAASSLQSGVPSRFSGSGSGTDFTLTISSLQPEDFATYYCQQSYSTPPITFGQGTRLEIK

Columns and labels:
Assay in all cases: cell-based or functional assay
[1] = target: Hemagglutinin of H1-WS33 virus (Influenza A virus (H1-WS33))
[2] = target: Hemagglutinin of H1-IVR148 virus (Influenza A virus (H1-IVR148))
[3] = target: Hemagglutinin of H1N1 A/California/07/2009 virus (Influenza A virus A/California/07/2009 …)
[4] = target: Hemagglutinin of H9-RG26 virus (Influenza A virus (H9-RG26))
[5] = target: Hemagglutinin of H13-MD77 virus (Influenza A virus (H13-MD77))
[6] = target: Hemagglutinin of H16-DE09 virus (Influenza A virus (H16-DE09))

| Binder | IC50 (nM), cell viability microneutralization assay (MDCK) [1] | IC50 (nM), cell viability microneutralization assay (MDCK) [2] | IC50 (nM), cell viability microneutralization assay (MDCK) [3] | IC50 (nM), cell viability microneutralization assay (MDCK) [4] | IC50 (nM), cell viability microneutralization assay (MDCK) [5] | IC50 (nM), cell viability microneutralization assay (MDCK) [6] |
| --- | --- | --- | --- | --- | --- | --- |
| B1 | 2.47 nM | 130 nM | 4.54 nM | 14.9 nM | 33.8 nM | 21.6 nM |
| B2 | 1.68 nM | 48 nM | 3.5 nM | 10.2 nM | 2.11 nM | 7.39 nM |
